Earlier results on two substances are cited in publication PMC11589041.

What is called Kd is the constant that tells how readily two partners part at equilibrium.

Several values for one entry are separate records, joined by “and”; a condition that tells them apart may be missing. Equal values may be shown once.

In data set [1] the target is INF2 DAD DAD (Homo sapiens) (UniProt Q27J81).
Data set [2] deals with mDia1 DAD DAD (Mus musculus) (UniProt O08808).
mDia1 DAD DAD (Mus musculus), sequence (O08808 1174-1208): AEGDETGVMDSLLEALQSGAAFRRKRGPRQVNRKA

INF2 DAD DAD (Homo sapiens), sequence (Q27J81 967-1000): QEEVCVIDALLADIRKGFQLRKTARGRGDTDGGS
INF2 DID DID, sequence (Q27J81 1-267): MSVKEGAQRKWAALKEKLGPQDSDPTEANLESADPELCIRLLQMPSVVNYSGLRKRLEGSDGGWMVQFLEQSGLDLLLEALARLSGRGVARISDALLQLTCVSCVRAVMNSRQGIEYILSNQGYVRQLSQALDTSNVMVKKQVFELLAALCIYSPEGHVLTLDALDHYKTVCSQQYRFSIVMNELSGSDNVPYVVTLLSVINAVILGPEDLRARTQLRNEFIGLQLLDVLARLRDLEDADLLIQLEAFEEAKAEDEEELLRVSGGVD
mDia1 DID DID, sequence (O08808 129-369): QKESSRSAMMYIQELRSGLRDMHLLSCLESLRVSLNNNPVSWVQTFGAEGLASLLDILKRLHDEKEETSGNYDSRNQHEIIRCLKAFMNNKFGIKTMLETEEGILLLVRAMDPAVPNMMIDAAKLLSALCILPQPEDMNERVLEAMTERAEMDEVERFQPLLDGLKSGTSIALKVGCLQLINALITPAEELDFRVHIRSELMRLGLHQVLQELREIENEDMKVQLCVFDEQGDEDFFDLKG

With INF2 DID DID (from UniProt Q27J81), the Kd in data set [1] is 22 µM and 5.4 µM.

With mDia1 DID DID (from UniProt O08808), the Kd in data set [2] was 0.265 µM.
